Experimental findings from publication PMC4201348 (ACS Chemical Biology, 2014) are described below.

The assay has as its target soluble, recombinant SUDV GP (Boniface variant), residues 33-649 (Sudan ebolavirus (Boniface variant), UniProt Q66814).

B1: 31C7 (antibody, V domains shown)
VH: EVQLVESGGGLVQPGGSLRLSCAASGFAFNYYDMFWVRQAPGKGLEWVAYINPGGGNTYYADSVKGRFTISADTSKNTAYLQMNSLRAEDTAVYYCARQLYGNSFLDYWGQGTLVTV
VL: DIQMTQSPSSLSASVGDRVTITCKASQDVTTAVAWYQQKPGKAPKLLIYWASSRYPGVPSRFSGSGSGTDFTLTISSLQPEDFATYYCQQHYSTPLTFGQGTKVEI
As to B1, the binding result is on record as “binds”.

B2: 35B5 (antibody, V domains shown)
VH: EVQLVESGGGLVQPGGSLRLSCAASGFAFNYYDMFWVRQAPGKGLEWVAYINSGGGNTYYPDSVKGRFTISADTSKNTAYLQMNSLRAEDTAVYYCARQLYGNSFFDYWGQGTLVTV
VL: DIQMTQSPSSLSASVGDRVTITCKASQDVTTAVAWYQQKPGKAPKLLIYWASTRHTGVPSRFSGSGSGTDFTLTISSLQPEDFATYYCQQHYSTPLTFGQGTKVEI
As for B2, the binding result is reported as “binds”.

B3: 51B6 (antibody, V domains shown)
VH: EVQLVESGGGLVQPGGSLRLSCAASGFAFNYYDLYWVRQAPGKGLEWVAYINPGGGNTYYPDSVKGRFTISADTSKNTAYLQMNSLRAEDTAVYYCARQLYGNSFFDYWGQGTLVTV
VL: DIQMTQSPSSLSASVGDRVTITCKASQDVTTAVAWYQQKPGKAPKLLIYWASTRHTGVPSRFSGSGSGTDFTLTISSLQPEDFATYYCQQHYSTPLTFGQGTKVEI
For the molecule B3, the binding result is recorded as “binds”.

B4: 34F5 (antibody, V domains shown)
VH: EVQLVESGGGLVQPGGSLRLSCAASGFAFNYYDMFWVRQAPGKGLEWVAYINSGGGNTYYPDSVKGRFTISADTSKNTAYLQMNSLRAEDTAVYYCARQLYGNSFFDYWGQGTLVTV
VL: DIQMTQSPSSLSASVGDRVTITCKASQDVTTAVAWYQQKPGKAPKLLIYWASARHRGVPSRFSGSGSGTDFTLTISSLQPEDFATYYCQQHYSTPLTFGQGTKVEI
B4: the binding result was “binds”.
